In the supplement of paper PMC12042874 one finds amyloid nucleation score data, which are given here for 27 substances.

± gives the uncertainty stated by the source.

A short description of data set [1]: amyloid nucleation score (Sup35N fusion, yeast selection) (log enrichment); library NNK3; higher = more nucleation; inactive = no reads after selection. In short, it runs like this:
(§1)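 Sup35N fusions to peptides of 20 random codons were expressed in psi-negative yeast, induced 24 hours with 100 μM copper sulfate, and grown 7 days at 30°C on medium lacking adenine and uracil. Input and output plasmid inserts were sequenced by Illumina. The nucleation score is the DiMSum log enrichment of output over input reads, centred on the mode score of non-aggregating sequences. Sequences with under 100 input reads were excluded.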

The nature of data set [2]: amyloid nucleation score (Sup35N fusion, yeast selection) (log enrichment); library NNK1; higher = more nucleation; inactive = no reads after selection. In short, it runs like this:
as §1

In the case of LMYMS, the values for the amyloid nucleation score result in data set [1] and in data set [2] were “inactive” and -0.11 ± 0.67, respectively.
As to VLCLHWWLRTILGPLLAYAN, in data set [2], the amyloid nucleation score result is “inactive”.
Substance AQLGDDYVRCHSTILSTRRL returned an amyloid nucleation score in data set [2] of 0.167 ± 0.62.
For CYVNLTFPVLVEACTASFTD, the amyloid nucleation score in data set [2] is 6.722 ± 0.055.
In turn, RKYKRTVMDMKCYWQGVWSV returned an amyloid nucleation score in data set [2] of 0.136 ± 0.5.
In data set [2], VLWTLVKIPHFTPNIMFRYY came in with an amyloid nucleation score of 0.053 ± 1.1.
In turn, LYWSPVWM returned an amyloid nucleation score in data set [2] of -0.232 ± 1.5.
Consider KKVINPYFFGCTGCNNTQRK, for which the amyloid nucleation score in data set [2] was -0.149 ± 0.31.
Regarding SFIIVYY, in data set [2], the amyloid nucleation score is 1.84 ± 0.19.
In data set [2], TRISFRKGV yielded an amyloid nucleation score of -0.54 ± 0.5.
QFSHCWMSRRSGVNSAGRSG came in with an amyloid nucleation score in data set [2] of -0.238 ± 0.39.
Consider TVSVANSKWSDTVINMRLDR, for which the amyloid nucleation score in data set [2] is 5.72 ± 0.065.
In data set [2], KIPKSVYVLTSIEGSAFNIK displayed an amyloid nucleation score of -0.234 ± 1.6.
On to RLRDIG, for which the amyloid nucleation score in data set [2] was -0.684 ± 1.2.
Same read-out and setting: next, SEVCPSSIKR: -0.067 ± 0.49; LSKCTKRKFTMCWDSLVRK: 0.779 ± 0.26.
Consider TWIFVSLACKAL, for which the amyloid nucleation score in data set [2] was -0.045 ± 0.4.
The substance FWGFVGTVMLLKCVFHGVSA showed an amyloid nucleation score in data set [2] of 0.628 ± 0.63.
On to CVTAAEM, for which the amyloid nucleation score in data set [2] came out at 0.762 ± 0.41.
With VWLGTEFFVSCLACMLVSVL, the amyloid nucleation score in data set [2] is -1.05 ± 0.54.
On the same count and under the same terms, under IVEFASFSVQVNARNDLHLV stands 1.73 ± 0.28; under GAVCLGQIMCSRVPRDVNVK, -0.547 ± 0.49; under LISLRVHYAASLFFFPVDDF, 0.998 ± 0.93.
Still for that read-out and setting: next, SLFMSYLCRLVHRLLSRKIG: -0.172 ± 0.28; LQTLGNWLHFKYAYWLLSNL: -0.55 ± 0.72; TISLLTHVFLDVLWCGR: -0.779 ± 0.61.
As to FALVRTLTRSKSSFTTSQIK, in data set [2], the amyloid nucleation score is 0.524 ± 0.47.
